We go through three molecules from PMC2932728, “The Canine Papillomavirus and Gamma HPV E7 Proteins Use an Alternative Domain to Bind and Destabilize the Retinoblastoma Protein” (PLoS Pathogens, 2010).

The target of one assay is pRb. In words: GST pull-down, Western blot with anti-pRb antibody, densitometry. The following applies: binding normalized to GSTE7 protein; wild type CPV-2 E7 GST fusion set to 100%; parent: 100.
A further assay has as its target T1, GST HPV16 E7CR1CR2 (human papillomavirus type 16 (HPV16), UniProt P03129 1-38).
T1 construct: E7 protein of human papillomavirus type 16, CR1 and CR2 domains; also called the combined CR domains; source: E. coli BL21pLysS, purified (glutathione-Sepharose)
T1 chain: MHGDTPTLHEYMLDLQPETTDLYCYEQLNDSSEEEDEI
In words: pull-down; 5 µg GST fusion protein with 50 µg Jurkat cell nuclear extract, 1 h at 4°C in 20 mM Hepes/150 mM KCl/4 mM MgCl2/1 mM EDTA/0.02% Nonidet P-40/10% glycerol; glutathione-Sepharose beads; Western blot for pRb and GST, densitometry normalised to GSTE7, wild type CPV-2 E7 set to 100%. The following applies: one partner purified. In general terms: A western blot detects proteins with antibodies after separation by electrophoresis.

For “GST CPV-2 E7 wild type fusion protein S26C”, the percent of parent with pRb stood at 147%.

Turning to “GST CPV-2 E7 wild type fusion protein S26G”, in the assay with pRb, the percent of parent was 99%.

B1: human retinoblastoma tumor suppressor protein pRb (natural protein, human (endogenous in Jurkat), UniProt P06400 1-928, looked up)
chain: MPPKTPRKTAATAAAAAAEPPAPPPPPPPEEDPEQDSGPEDLPLVRLEFEETEEPDFTALCQKLKIPDHVRERAWLTWEKVSSVDGVLGGYIQKKKELWGICIFIAAVDLDEMSFTFTELQKNIEISVHKFFNLLKEIDTSTKVDNAMSRLLKKYDVLFALFSKLERTCELIYLTQPSSSISTEINSALVLKVSWITFLLAKGEVLQMEDDLVISFQLMLCVLDYFIKLSPPMLLKEPYKTAVIPINGSPRTPRRGQNRSARIAKQLENDTRIIEVLCKEHECNIDEVKNVYFKNFIPFMNSLGLVTSNGLPEVENLSKRYEEIYLKNKDLDARLFLDHDKTLQTDSIDSFETQRTPRKSNLDEEVNVIPPHTPVRTVMNTIQQLMMILNSASDQPSENLISYFNNCTVNPKESILKRVKDIGYIFKEKFAKAVGQGCVEIGSQRYKLGVRLYYRVMESMLKSEEERLSIQNFSKLLNDNIFHMSLLACALEVVMATYSRSTSQNLDSGTDLSFPWILNVLNLKAFDFYKVIESFIKAEGNLTREMIKHLERCEHRIMESLAWLSDSPLFDLIKQSKDREGPTDHLESACPLNLPLQNNHTAADMYLSPVRSPKKKGSTTRVNSTANAETQATSAFQTQKPLKSTSLSLFYKKVYRLAYLRLNTLCERLLSEHPELEHIIWTLFQHTLQNEYELMRDRHLDQIMMCSMYGICKVKNIDLKFKIIVTAYKDLPHAVQETFKRVLIKEEEYDSIIVFYNSVFMQRLKTNILQYASTRPPTLSPIPHIPRSPYKFPSSPLRIPGGNIYISPLKSPYKISEGLPTPTKMTPRSRILVSIGESFGTSEKFQKINQMVCNSDRVLKRSAEGSNPPKPLKKLRFDIEGSDEADGSKHLPGESKFQQKLAEMTSTRTRMQKQKMNDSMDTSNKEEK
notes: retinoblastoma protein pRb, human, endogenous in Jurkat cell nuclear extract; also called human pRb; source: endogenous, Jurkat cell nuclear extract
For the molecule B1, in the assay with GST HPV16 E7CR1CR2, the “fold pRb bound against the HPV16 E7 carboxyl-terminus domain” value came out at 6 fold.
